The supplement of paper PMC10724198
± gives the standard deviation of the averaged measurements.

System: Saccharomyces cerevisiae
Experiment: protein stability index of tFT-peptide fusion (C-terminal peptide) (PSI (0-1 scale)); higher = more stable (slower turnover)
Conditions: genetic background: wild type; temperature: 30 C
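Further: PSI is a weighted mean of sequencing reads over stability bins, variants kept only with over 10 reads, mCherry proximal and sfGFP distal, peptide attached via GGGS linker.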

Row | Sequence | protein stability index
1 | RCIAAEFFRVHP | 0.685 ± 0.019
2 | VGGVWVDVMGFC | 0.793 ± 0.16
3 | MHATWTLRRHGH | 0.523 ± 0.04
4 | VSYLLPPPPPPP | 0.682 ± 0.046
5 | SCLCIHEIFLRL | 0.672 ± 0.016
6 | SSRRNNIPKRYK | 0.713 ± 0.031
7 | KVGLGVNSLFTG | 0.745 ± 0.18
8 | IHLALYKYEVMG | 0.584 ± 0.017
9 | PFRLSPPLPPAP | 0.743 ± 0.084
10 | AAAWWGPRNRGL | 0.6749 ± 0.0056
11 | TRLTSSGVGSVP | 0.683 ± 0.1
12 | DNVVLVRQAAFI | 0.618 ± 0.066
13 | PPPPPPPPHPPP | 0.559 ± 0.0068
14 | RELKSPRCRTHR | 0.653 ± 0.12
15 | LSGSRAFVTVVL | 0.644 ± 0.034
16 | RDGKRHSSQWRG | 0.659 ± 0.037
17 | LLHWGRWSRGRR | 0.694 ± 0.071
18 | AVAETCEQAGRG | 0.675 ± 0.066
19 | ILDSPMWQPVSM | 0.727 ± 0.056
20 | SPVSLPIPYTFL | 0.6891 ± 0.0054
21 | TPGDAVICSFYI | 0.642 ± 0.015
22 | GCRLVSDCRVFV | 0.67 ± 0.031
23 | IKSDCKDRRKRR | 0.7233 ± 0.0072
24 | APILFRICVRRL | 0.541 ± 0.046
25 | SPPSPPSPPPLV | 0.745 ± 0.013
26 | CVDWGAVGLVAG | 0.598 ± 0.018

Row | Sequence | protein stability index
27 | RGFGSGTVGVQS | 0.616 ± 0.034
28 | GGCGWRGDGGGA | 0.679 ± 0.13
29 | AYLPSLPPLGGI | 0.717 ± 0.06
30 | RLPRHLPPAPAL | 0.679 ± 0.025
31 | VVRGKRRVRWLR | 0.625 ± 0.049
32 | YRSLFPAPPLHP | 0.6747 ± 0.0026
33 | LPPGIPLRSSPP | 0.683 ± 0.022
34 | DKRPTLYSLSLS | 0.621 ± 0.032
35 | LRRGRLVSSAAF | 0.802 ± 0.077
36 | VQSSLSDFYVSS | 0.707 ± 0.061
37 | AGSVIPCPASRP | 0.695 ± 0.029
38 | FRSRGPVGMGAS | 0.686 ± 0.1
39 | QASRGSLPSEIE | 0.6414 ± 0.0029
40 | VFALSSVAIRRS | 0.64 ± 0.032
41 | EVEINGRLVGKM | 0.646 ± 0.097
42 | KPRSRMHRIVRI | 0.722 ± 0.027
43 | LVSFLFAPLPLS | 0.704 ± 0.038
44 | IVLLSLSCRSPG | 0.594 ± 0.014
45 | ATYNASLERLRP | 0.719 ± 0.2
46 | YRFFGGYWETGW | 0.744 ± 0.033
47 | PPAPPLSSPPPS | 0.662 ± 0.053
48 | KKKRKKKQKIRK | 0.731 ± 0.08
49 | ASIRLSPSWVQR | 0.652 ± 0.0081
50 | LCSPGPLPPSYF | 0.705 ± 0.045
51 | VGPFSSSRIGTS | 0.6003 ± 0.0019
52 | CTHYFSNSCLLR | 0.604 ± 0.063

Row | Sequence | protein stability index
53 | DARALMGEGGSV | 0.651 ± 0.016
54 | SKSLRAAQGGRT | 0.684 ± 0.016
55 | GYRSLADSIDLL | 0.7244 ± 0.0066
56 | RYIKSRMLIIER | 0.56 ± 0.049
57 | SWRKGAHRPVEV | 0.66 ± 0.036
58 | SGNDIQSLNIVI | 0.754 ± 0.081
59 | GCENSRRSWRPD | 0.609 ± 0.028
60 | QEKTKTYPIPQR | 0.688 ± 0.041
61 | YALWRFRSLADV | 0.695 ± 0.1
62 | RKTEGGGEGLAV | 0.728 ± 0.035
63 | TLAPPLPPPPLV | 0.731 ± 0.013
64 | PPSRPLSVLPPP | 0.6863 ± 0.0055
65 | IGLVRPSGTQQT | 0.6764 ± 0.006
66 | LPLIISTNYTPD | 0.723 ± 0.11
67 | SACPPIPPPPPP | 0.635 ± 0.026
68 | PPSVPTPCPVPI | 0.696 ± 0.067
69 | RARELGVPPPPP | 0.579 ± 0.066
70 | PLKPPTPDPPHR | 0.666 ± 0.027
71 | ELGSIYDGWARA | 0.691 ± 0.011
72 | VSGYGSSQDDVR | 0.6397 ± 0.0056
73 | LVVSPPPLPFPS | 0.689 ± 0.013
74 | GCWGGLGAPGVS | 0.734 ± 0.028
75 | TLYLCALPALSR | 0.615 ± 0.0075
76 | ASPSPLPPLPPP | 0.718 ± 0.1
77 | LAWALGESSPIG | 0.737 ± 0.044
78 | MPKVIIGMSVTK | 0.687 ± 0.015

Row | Sequence | protein stability index
79 | WPHAPSLPRFSG | 0.69 ± 0.018
80 | PPPPRPPRPPPA | 0.671 ± 0.12
81 | PPSTPPPSPPTP | 0.725 ± 0.072
82 | PPFDSAHPTPAP | 0.739 ± 0.019
83 | RGVPPPCPLLAA | 0.599 ± 0.077
84 | RHYGVTSLISLQ | 0.674 ± 0.01
85 | GGVRGERSDLRT | 0.712 ± 0.028
86 | PACPPTSDFPSL | 0.623 ± 0.073
87 | SCITFGGWLGGM | 0.709 ± 0.13
88 | GLGGGVGGGLVV | 0.7045 ± 0.0046
89 | PLLPPLPPRPPP | 0.633 ± 0.03
90 | HSFASTWYSSPG | 0.685 ± 0.0076
91 | KRRSQKKKRIMD | 0.6968 ± 0.0043
92 | DFGVRLGGPRTL | 0.645 ± 0.017
93 | GGGMRLVKRACY | 0.64 ± 0.031
94 | TNVPVLTLMVYL | 0.591 ± 0.089
95 | KKSKKHEKKKNK | 0.711 ± 0.065
96 | HRQERLETKTYF | 0.623 ± 0.13
97 | LSSGLLIFPIVF | 0.631 ± 0.031
98 | NKQNKEIQPKRK | 0.653 ± 0.021
99 | CLWTSAQVPFQT | 0.703 ± 0.0081
100 | RGVGGVLEVLLG | 0.5256 ± 0.0032
101 | CCVKRARVPHFV | 0.6159 ± 0.0014
102 | KHQKNRLRDLGS | 0.708 ± 0.03
103 | NGTGGVSSLAFG | 0.6399 ± 0.0013
104 | ACFFNCFISLPF | 0.584 ± 0.048

Row | Sequence | protein stability index
105 | LLSAVVDHTHLQ | 0.664 ± 0.07
106 | VVLVGVVGGMVG | 0.639 ± 0.018
107 | IIDCQVSFSFLI | 0.588 ± 0.063
108 | PPFPPHPPPSSA | 0.6873 ± 0.0052
109 | DQIDGPCNSRTR | 0.674 ± 0.023
110 | VSREWNVSIDVF | 0.495 ± 0.027
111 | PPMSYYLFPCSR | 0.699 ± 0.061
112 | KKIKKKQTTLKR | 0.665 ± 0.081
113 | VCLCGGLGWVLF | 0.634 ± 0.029
114 | PLPPRPHPLLSP | 0.6526 ± 0.0026
115 | KKQKKKPQNKKK | 0.954 ± 0.066
116 | SRPLANYARCSS | 0.639 ± 0.036
117 | LVFGGRMRVYRP | 0.678 ± 0.016
118 | QSLRRLSSSSCI | 0.707 ± 0.058
119 | KKSGTRDKNIQH | 0.676 ± 0.046
120 | PFLHPTRLARSN | 0.712 ± 0.011
121 | CCRRWSLEWGRG | 0.717 ± 0.038
122 | PPPAPLSPLSPR | 0.6777 ± 0.0016
123 | TGVSTRVTHTAP | 0.707 ± 0.014
124 | WGPVPWWFGWMG | 0.678 ± 0.027
125 | PRLPLPSRPSPR | 0.655 ± 0.064
126 | AVAYMAHLPITR | 0.69 ± 0.019
127 | FAHRVVCFCVFS | 0.505 ± 0.038
128 | PPSSPPPTIPAH | 0.642 ± 0.029
129 | VPSANAQTPSTC | 0.717 ± 0.071
130 | RWFTFPVPVPFC | 0.642 ± 0.036

Row | Sequence | protein stability index
131 | LASCAFQFLASC | 0.691 ± 0.098
132 | LSFDAVSVGFGG | 0.691 ± 0.064
133 | LFVGSSPPPSPP | 0.643 ± 0.046
134 | SRLRPHNSSTPV | 0.716 ± 0.053
135 | GFTCGCSSMKNF | 0.718 ± 0.021
136 | GVGLKMLSVGDI | 0.6119 ± 0.002
137 | CSLSGAFLNQAR | 0.6842 ± 0.0041
138 | RTSPRSHVSRSL | 0.79 ± 0.056
139 | GVLRGNRITECF | 0.716 ± 0.049
140 | VGVRCCPRLRFG | 0.695 ± 0.061
141 | GGRRRAWLGGRW | 0.746 ± 0.012
142 | SISLVLPASCIT | 0.693 ± 0.021
143 | PFPLPPLCPPAA | 0.722 ± 0.064
144 | PPPRPRYLHPPS | 0.719 ± 0.035
145 | FGCGVADLERCL | 0.686 ± 0.013
146 | PAPRWFSHPSYP | 0.676 ± 0.01
147 | ALSHGPAPRTRS | 0.649 ± 0.048
148 | AWGWPWGHGFVV | 0.738 ± 0.047
149 | LKKIEPRKNDKI | 0.719 ± 0.025
150 | RVDALVHLPLRL | 0.629 ± 0.03
151 | RGPRGGFHFFRA | 0.6657 ± 0.003
152 | PRNPLFSPPLPD | 0.752 ± 0.0099
153 | RREVKKNGNKRN | 0.713 ± 0.073
154 | RARNRPKTEYHI | 0.6826 ± 0.0025
155 | KMTSLSRVDIEE | 0.668 ± 0.087
156 | AGGAAIVERAMK | 0.6857 ± 0.003

Row | Sequence | protein stability index
157 | TKFKPKILEKCT | 0.686 ± 0.021
158 | PPPPLPPLTPLS | 0.6512 ± 0.0037
159 | KKKTKEKTRKKK | 0.702 ± 0.016
160 | WWKLSGTGWGTL | 0.73 ± 0.022
161 | PFFSFGGLRFLL | 0.6621 ± 0.0053
162 | RGGLRRGSGREG | 0.684 ± 0.068
163 | AFPHDYCRFFLP | 0.612 ± 0.048
164 | SKNQQKKCQMIT | 0.534 ± 0.038
165 | RPFAPLPPPPSM | 0.689 ± 0.025
166 | GSFPPAAHFSPD | 0.702 ± 0.043
167 | SPLVSSPPPALL | 0.643 ± 0.081
168 | PCPIGGRPCRVG | 0.7275 ± 0.0037
169 | GVLPWQYSSFLS | 0.694 ± 0.058
170 | SSGPPRLPHSRR | 0.646 ± 0.046
171 | DGQSAKEPVGFR | 0.681 ± 0.037
172 | LHLGHAGQACPA | 0.6277 ± 0.0022
173 | GGSGQGAGAVWG | 0.63 ± 0.076
174 | TPPPPPPPLRAT | 0.638 ± 0.038
175 | SMVLRTIKKRNI | 0.661 ± 0.015
176 | LTLQIWNLVSHL | 0.599 ± 0.071
177 | KSSNIINQKRIT | 0.66 ± 0.056
178 | PTPPTAAPAAPR | 0.714 ± 0.053
179 | RGKTGLTRYIGV | 0.709 ± 0.074
180 | WPLSYLPLSSPP | 0.701 ± 0.01
181 | GMADVCRVGSRG | 0.674 ± 0.033
182 | GPALLLHRLTAP | 0.684 ± 0.066

Row | Sequence | protein stability index
183 | RVLGGGVLGVLV | 0.711 ± 0.0099
184 | GSGGGGGYVSGN | 0.69 ± 0.021
185 | LGCCVFGFVFPS | 0.672 ± 0.047
186 | SFRVLCHGAQLL | 0.634 ± 0.065
187 | CQILLSYSGYPH | 0.589 ± 0.021
188 | DGWKERDSGVVG | 0.701 ± 0.018
189 | PGRMEKKALKRP | 0.677 ± 0.014
190 | VWVWHGAVLMGG | 0.527 ± 0.017
191 | RCGLSGGRPPVL | 0.6475 ± 0.0016
192 | NPYKREKKKNKK | 0.787 ± 0.14
193 | SLLQSLPSPPPP | 0.639 ± 0.011
194 | PRHGSPASPRPP | 0.636 ± 0.086
195 | PPPPVPLPPPRL | 0.713 ± 0.021
196 | PSPPPPGLFPLP | 0.632 ± 0.044
197 | MMMRKAPTARVS | 0.637 ± 0.024
198 | FCSPLPSSPPLP | 0.658 ± 0.028
199 | APIRPPVPPASP | 0.716 ± 0.035
200 | GKRKGETGNRGG | 0.741 ± 0.19
201 | MGACGGRVGKFG | 0.662 ± 0.035
202 | PSSWGRFLRRRP | 0.7 ± 0.024
